Assay results taken from patent US8778635B2, “Thermostable proteins and methods making and using thereof” (Becton, Dickinson and Company, priority 2006, dated 2014).
Where a chain is given by its changes, count along the chain named. Names may count otherwise.

B1: Modified protein 1: 3M-GGBP (SEQ ID NO:3) with substitution N39I (protein)
chain: ADTRIGVTIYKYDDNFMSVVRKAIEQDAKAAPDVQLLMIDSQNDQSKQNDQIDVLLAKGVKALAINLVDPAAAGTVIEKARGQNVPVVFFNKEPSRKALDSYDKAYYVGTDSKESGIIQGDLIAKHWAANQGWDLNKDGQIQFVLLKGCPGHPDAEARTTYVIKELNDKGIKTEQLQLDTAMWDTAQAKDKMDAWLSGPNANKIEVVIANNDRMAMGAVEALKAHNKSSIPVFGVDASPEALALVKSGALAGTVLNDANNQAKATFDLAKNLADGKGAADGTNWKIDNKVVRVPYVGVDKDNLAEFSKK
B2: Modified protein 12: 3M-GGBP (SEQ ID NO:3) with substitutions N283D, W284L (protein)
chain: B1 chain with I39N, N283D, W284L
B3: Modified protein 10: 3M-GGBP (SEQ ID NO:3) with substitutions N259E, N260S (protein)
chain: B1 chain with I39N, N259E, N260S
B4: Modified protein 4: 3M-GGBP (SEQ ID NO:3) with substitution N130D (protein)
chain: B1 chain with I39N, N130D
B5: Modified protein 5: 3M-GGBP (SEQ ID NO:3) with substitutions Q175E, Q177H, L178M (protein)
chain: B1 chain with I39N, Q175E, Q177H, L178M
B6: Modified protein 7: 3M-GGBP (SEQ ID NO:3) with substitutions G198S, P199S, N200K (protein)
chain: B1 chain with I39N, G198S, P199S, N200K
B7: Modified protein 8: 3M-GGBP (SEQ ID NO:3) with substitution N226G (protein)
chain: B1 chain with I39N, N226G
B8: Modified protein 9: 3M-GGBP (SEQ ID NO:3) with substitution N226K (protein)
chain: B1 chain with I39N, N226K
B9: Modified protein 6: 3M-GGBP (SEQ ID NO:3) with substitutions Q175I, Q177E (protein)
chain: B1 chain with I39N, Q175I, Q177E
B10: Modified protein 13: 3M-GGBP (SEQ ID NO:3) with substitution N302T (protein)
chain: B1 chain with I39N, N302T
B11: Modified protein 3: 3M-GGBP (SEQ ID NO:3) with substitutions G82E, Q83K, N84D (protein)
chain: B1 chain with I39N, G82E, Q83K, N84D
B12: Modified protein 11: 3M-GGBP (SEQ ID NO:3) with substitutions K270Y, N271S (protein)
chain: B1 chain with I39N, K270Y, N271S
B13: W183C(1, 3, 5, 10): W183C (SEQ ID NO:4) with N39I, G82E, Q83K, N84D, Q175E, Q177H, L178M, N259E and N260S (protein)
chain: ADTRIGVTIYKYDDNFMSVVRKAIEQDAKAAPDVQLLMIDSQNDQSKQNDQIDVLLAKGVKALAINLVDPAAAGTVIEKAREKDVPVVFFNKEPSRKALDSYDKAYYVGTDSKESGIIQGDLIAKHWAANQGWDLNKDGQIQFVLLKGEPGHPDAEARTTYVIKELNDKGIKTEELHMDTAMCDTAQAKDKMDAWLSGPNANKIEVVIANNDAMAMGAVEALKAHNKSSIPVFGVDALPEALALVKSGALAGTVLNDAESQAKATFDLAKNLADGKGAADGTNWKIDNKVVRVPYVGVDKDNLAEFSKK

What was measured:
[1] = Fluorescence assay of glucose binding (glucose titration, Kd and fluorescence response)
Description: Dye-protein fluorophore (N,N′-dimethyl-N-(iodoacetyl)-N′-(7-nitrobenz-2-oxa-1,3-diazol-4-yl)ethylenediamine designated IANBD) or acrylodan coupling was performed as described by the manufacturer (Molecular Probes).
Briefly, 0.5 ml of 3M-GGBP (1-2 mg/ml) was treated with 2.5 molar excess of dithiothreitol for 30 min. A10-fold molar excess solution of IANBD in DMSO (0.5 mg/100 uL) was then added. While protected from light, the protein and dye were gently mixed for 4 h at 25° C. before the unreacted dye was removed by Nap-5 column chromatography (Amersham Biosciences).
Binding constants were determined by titration of increasing concentrations of glucose into a 0.1 μM protein in PBS and monitoring the change in fluorescence. The Kd was determined from the following relationships as adapted from Pisarchick and Thompson (Pisarchick, M. L. and Thompson, N. L. Biophys. J. (1990), 58, 1235-1249):
[formula] where F is fluorescence intensity, Finf is fluorescence at infinity, F0 is fluorescence at zero
[formula] where [Glc]free is the concentration of free glucose and [Glc]tot and [Prot]tot are the total concentrations of glucose and protein, respectively. For the SM4, the ratio of the area under the fluorescence curve from 514-540 nm to the area under the curve at 450-470 nm was used in place of fluorescence intensity in the equations above. […]

[2] = Circular dichroism melting temperature (Tm), CD signal at 222 nm versus temperature; format: physicochemical; design: key to + ΔTm / − ΔTm: Tm difference in °C from reference 3M-GGBP; settings: for increase of Tm over the reference protein (in words): among the thirteen modified GGBPs, reference 3M-GGBP; for + ΔTm: increase of Tm over reference protein 3M-GGBP; for + ΔTm / − ΔTm: CD, PBS; for Previously Tested, See - Table II: ΔTm: repeated from Table II, modified 3M-GGBP versus 3M-GGBP; for − ΔTm: decrease of Tm versus reference protein 3M-GGBP
Description: Circular Dichroism (CD) spectra were preformed on a JASCO J-810. Samples of purified fluorophore-labeled proteins were exhaustively dialyzed into phosphate buffered saline (PBS) (comprised of 137 mM NaCl, 10 mM phosphate and 2.7 mM KCl, pH 7.4). The loss of secondary structure of 3M-GGBP and W183C-GGBP was observed by recording the CD signal at 222 nm as a function of temperature. During the experiment, the temperature of the sample changed at a rate of ˜1° C./min between 20 and 80° C. The apparent melting temperature at the midpoint of the transition (Tm) was obtained by fitting the experimental data points (CD signal versus temperature) with a sigmoidal function.

[3] = Storage stability of purified / labeled protein; format: physicochemical; settings: acrylodan-labeled
Description: The modified GGBP were expressed from E. coli strain Sg13009 following standard protocols (Qiagen). After induction, bacteria were lysed using Bugbuster protein extraction reagent (Novagen) and purified by IMAC using Talon cobalt^2+ resin (Clontech). The purified protein in solution was filtered through 100 kDa cutoff filter and then concentrated using a 10 kDa cutoff filter (Millipore). The protein (1-2 mg/ml) was dialyzed at 4° C. into a solution containing 1M NaCl, 10 mM Tris-HCl, and 50 mM NaPO4 (pH 8) and stored at 4° C. Under these conditions the protein was active for at least six months. The yield from the purification was approximately 10 mg/l.
After labeling with acrylodan the SM4 was transferred to a buffer for frozen storage. The protein was dialyzed against a solution of 0.01M MES, 30 mM glucose (pH 5.5-5.7) for 24 h with three changes of buffer. After dialysis the protein was quantified and diluted to a 100 μM solution using the same buffer. The vials were then placed directly into a −70° C. freezer for storage. The protein is stable for at least 3 months under these conditions.
To lyophilize the SM4 protein, the protein solution was dialyzed against ammonium bicarbonate (50 mM, pH 7) for 24 h with three changes of buffer. The protein was passed through a 0.2 um Supor filter (Pall) and was aliquoted into amber vials (2 mg/vial). […]

Molecule	+ ΔTm [2]	Previously Tested, See - Table II: ΔTm [2]	− ΔTm [2]	also measured
W183C-acrylodan: reference W183C-GGBP labeled with acrylodan	–	–	–	Kd ([1]; glucose titrated into 0.1 μM protein in PBS): 19.6 ± 10%; Fluorescent Response ([1]; glucose, labeled protein): 3.4 ± 8%; Tm* ([2]; Tm determined in PBS, fluorophore-labeled protein): 39.8 ± 2%
B1	1	+1	–	increase of Tm over the reference protein (in words) [2]: greatest increase of Tm
B2	–	−3.7	3.7	–
B3	3.6	–	–	increase of Tm over the reference protein (in words) [2]: greatest increase of Tm
B4	–	−5.2	5.2	–
B5	3	–	–	increase of Tm over the reference protein (in words) [2]: greatest increase of Tm
B6	0.5	+0.5	–	–
B7	0.9	–	–	–
B8	0.3	–	–	–
B9	–	–	0.3	–
B10	–	–	0.2	–
B11	1.5	–	–	increase of Tm over the reference protein (in words) [2]: greatest increase of Tm
B12	–	−3.5	3.5	–
B13	–	–	–	time the protein is stable, frozen storage ([3]; 100 μM in 0.01M MES, 30 mM glucose (pH 5.5-5.7), −70° C.): at least 3 months; time the protein is stable, lyophilized ([3]; lyophilized from ammonium bicarbonate (50 mM, pH 7)): at least 6 months; Tm greater than that of the reference protein (W183C) ([2]; FIG. 1, protocol of Example 2): about 9.4 °C; melting temperature ([2]; without the termini additions present, in PBS): about 55.4 °C
